# Test results as given in the supplement of paper PMC10126150.
# ± gives the standard deviation of the averaged measurements.
# Test system: ATP
# Assay: switch fluorescence ratio, 500 uM ATP over buffer (Cy3 cluster intensity, sum of 5 cycles each) (fold (ratio)); higher = stronger signal-on switching upon ATP binding; sequences stand for … in TCGTCGGCAGCGTCAGATGTGTATAAGAGACAGTTTTTTTTTTTTTTTTTTTTTTTTT…TC
# Conditions: aptamer strand: ATP DNA aptamer (quencher-CACCTGGGGGAGTATTGCGGAGGAAGG + anchor), 100 nM annealed; ATP concentration: 500 uM
# Outline: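 Cy3-labelled switching-strand clusters on a modified Illumina MiSeq flow-cell were annealed to 100 nM quencher-labelled ATP aptamer, imaged in selection buffer, then imaged after 15 min with 500 uM ATP at 22 °C. Five buffer/ATP cycles ran, with NaOH stripping and re-annealing between them. The fluorescence ratio is summed target-cycle over summed buffer-cycle Cy3 intensity per cluster, averaged per switch-domain sequence. Clusters outside 100-1000 RFU were excluded.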
# 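Also: ATP exposure 15 min at 22 °C before imaging.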
row,Sequence,switch fluorescence ratio
1,TTATCTGTAA,1.01 ± 0.051
2,GTAATATTAA,1.0073 ± 0.00065
3,AGGGAATATT,1.01 ± 0.027
4,CCATATTTGG,1.033 ± 0.0063
5,TCGCGGTTCT,1.11 ± 0.085
6,GCTCCTAAAA,1.1039 ± 0.00034
7,AGGGGCATTC,1.03 ± 0.064
8,TATAGGGGAT,1.032 ± 0.0068
9,TTTTATCGGG,0.971 ± 0.016
10,GGTAGGGGTC,1.01 ± 0.056
11,AAAAAGTCGC,0.961 ± 0.022
12,ATGTGGGAGT,0.979 ± 0.034
13,GACTGGATAG,0.983 ± 0.022
14,ACAGAAGGTC,0.977 ± 0.015
15,TGCTTAACAT,1.01 ± 0.019
16,TTTGGGAAGG,0.985 ± 0.034
17,GGGAGATAGA,0.982 ± 0.052
18,TCGGTTGTGT,1.08 ± 0.078
19,AGTGGGTATA,1.01 ± 0.02
20,AAGACCGTTG,0.967 ± 0.017
21,TTAAGTTATA,1.018 ± 0.0099
22,TCGTAGGGG,0.961 ± 0.018
23,AAAATGCGGT,0.996 ± 0.015
24,TTTAAGTGCG,1.05 ± 0.09
25,GGCTCGGCAG,1.05 ± 0.043

row,Sequence,switch fluorescence ratio
1,TGCCGAGATC,1 ± 0.013
2,CTCGTCCGAC,1.53 ± 0.11
3,TTGTATGATT,1.013 ± 0.0075
4,TTTCTTAGTG,0.9622 ± 0.0086
5,TTTGGGGAAT,1.02 ± 0.033
6,TTTTTACTTT,1.05 ± 0.17
7,TATTTGAAAG,1 ± 0.04
8,GGTTAATAGG,0.99 ± 0.013
9,TTGTGGGTAC,1.0042 ± 0.0004
10,TCTTGGGTTG,0.986 ± 0.029
11,AGGGAATAGG,1.01 ± 0.041
12,CACTAGGGGA,1 ± 0.028
13,GCCGAACCTC,1.28 ± 0.037
14,GGTATAGGTC,1.05 ± 0.011
15,CCATAGGGGA,1.0339 ± 0.00023
16,AGATAGTCTC,0.991 ± 0.024
17,CAGGTTCACG,1.02 ± 0.032
18,GATTTCATTT,1.01 ± 0.04
19,GGGTTTTTAG,0.994 ± 0.033
20,CTCAGACGGA,1 ± 0.043
21,CTTTGGAACT,1.06 ± 0.065
22,GTTTCAGGGA,1.01 ± 0.013
23,TAACGTTTTG,0.989 ± 0.025
24,GCGGGGGACC,1.011 ± 0.0051
25,GGGAGGGTTG,0.981 ± 0.031

row,Sequence,switch fluorescence ratio
1,TTGTGGACTT,0.9995 ± 0.0093
2,TCAGGGGTAT,1.03 ± 0.028
3,AGACGAAAGT,0.998 ± 0.054
4,GCTGATTGGC,1.05 ± 0.13
5,GTAATAAGGT,1.02 ± 0.023
6,TGGAACACCT,1.13 ± 0.041
7,TTTTATAGCA,1.02 ± 0.059
8,TTGCGCAATT,1.51 ± 0.47
9,ATGGGCGTTG,0.9658 ± 0.0037
10,GATAAGTCGT,0.991 ± 0.032
11,CAGTACGCGT,1.04 ± 0.017
12,AGGTTCAAAT,0.996 ± 0.044
13,GGGGTTTCTT,0.987 ± 0.048
14,CGCGTATTGT,0.999 ± 0.016
15,AAGCGGGACG,0.999 ± 0.054
16,GTATTCAAGA,1 ± 0.043
17,AAGATTTTAT,0.977 ± 0.019
18,CCGGGATGGG,1.03 ± 0.022
19,TGCCAGTACG,1.064 ± 0.0044
20,CCCAGGTTAG,2.9 ± 0.2
21,CATTACAGGG,1.01 ± 0.023
22,TTCGCAACGG,1.22 ± 0.34
23,GAGTTTTGAA,0.997 ± 0.018
24,ATTTGCGTTC,1.01 ± 0.056
25,TTTATAGCGA,1.63 ± 0.54

row,Sequence,switch fluorescence ratio
1,CGCGGGTTGA,1.053 ± 0.0094
2,GATTGGGTCA,1 ± 0.012
3,GCTGATTTGT,0.989 ± 0.038
4,ACTCTATTTG,1.04 ± 0.025
5,TGTTTGTGTT,0.977 ± 0.013
6,TTTTGTATTG,0.98 ± 0.024
7,CTAGTTAGCT,1.015 ± 0.0097
8,TGGCTGGGTT,1 ± 0.054
9,AATTAGGGCT,0.971 ± 0.026
10,AACCGGTGCA,1.08 ± 0.017
11,CTTGTGTGTC,0.999 ± 0.015
12,ATGGTTGGAC,0.9925 ± 0.0094
13,CGTTAAAATA,1.01 ± 0.062
14,CTCCTTTATT,1.04 ± 0.037
15,CTTGCGGGGA,1.0408 ± 0.00045
16,TTATTAATTT,1 ± 0.03
17,GTTGGCTTTG,0.997 ± 0.048
18,GCTCATTATT,1.014 ± 0.0015
19,GCGAGAGCTA,0.9602 ± 0.0021
20,TATTATTCTG,0.986 ± 0.023
21,TGACCGGGGG,1.0571 ± 5.2e-05
22,ACGTCCGTTT,1.04 ± 0.019
23,ACTGCCGGTC,1.04 ± 0.041
24,CAGGAAGCGG,1.025 ± 0.0027
25,AGAGAAAAAG,0.957 ± 0.042
